Measurements: PMC11574045, “A cofactor-induced repressive type of transcription factor condensation can be induced by synthetic peptides to suppress tumorigenesis” (The EMBO Journal, 2024)

Tested on: HEK293FT cells transfected with TF library
Assay: Screening of TF condensates based on fluorescent puncta
Type: cell-based
Conditions: Figure 1B numerical data; TF library screen, one value per transcriptional factor
How it was run: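 Condensate formation is scored as Alexa 488-labelled puncta after Flag- or GAL4-tag immunostaining of fixed HEK293FT cells expressing individual TFs, with a 12 h glucose-free or glucose-containing culture preceding fixation.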

Molecule	Z score of condensed fraction
XBP1 (protein, UniProt P17861 1-261, looked up) X-box-binding protein 1: MVVVAAAPNPADGTPKVLLLSGQPASAAGAPAGQALPLMVPAQRGASPEAASGGLPQARKRQRLTHLSPEEKALRRKLKNRVAAQTARDRKKARMSELEQQVVDLEEENQKLLLENQLLREKTHGLVVENQELRQRLGMDALVAEEEAEAKGNEVRPVAGSAESAALRLRAPLQQVQAQLSPLQNISPWILAVLTLQIQSLISCWAFWTTWTQSCSSNALPQSLPAWRSSQRSTQKDPVPYQPPFLCQWGRHQPSWKPLMN	-0.3977
VENTX (protein, UniProt O95231 1-258, looked up) Homeobox protein VENTX: MRLSSSPPRGPQQLSSFGSVDWLSQSSCSGPTHTPRPADFSLGSLPGPGQTSGAREPPQAVSIKEAAGSSNLPAPERTMAGLSKEPNTLRAPRVRTAFTMEQVRTLEGVFQHHQYLSPLERKRLAREMQLSEVQIKTWFQNRRMKHKRQMQDPQLHSPFSGSLHAPPAFYSTSSGLANGLQLLCPWAPLSGPQALMLPPGSFWGLCQVAQEALASAGASCCGQPLASHPPTPGRPSLGPALSTGPRGLCAMPQTGDAF	-0.4099
C1D (protein, UniProt Q13901 1-141, looked up) Nuclear nucleic acid-binding …: MAGEEINEDYPVEIHEYLSAFENSIGAVDEMLKTMMSVSRNELLQKLDPLEQAKVDLVSAYTLNSMFWVYLATQGVNPKEHPVKQELERIRVYMNRVKEITDKKKAGKLDRGAASRFVKNALWEPKSKNASKVANKGKSKS	-0.3287
USP49 (protein, UniProt Q70CQ1 1-688, looked up) Ubiquitin carboxyl-terminal …: MDRCKHVGRLRLAQDHSILNPQKWCCLECATTESVWACLKCSHVACGRYIEDHALKHFEETGHPLAMEVRDLYVFCYLCKDYVLNDNPEGDLKLLRSSLLAVRGQKQDTPVRRGRTLRSMASGEDVVLPQRAPQGQPQMLTALWYRRQRLLARTLRLWFEKSSRGQAKLEQRRQEEALERKKEEARRRRREVKRRLLEELASTPPRKSARLLLHTPRDAGPAASRPAALPTSRRVPAATLKLRRQPAMAPGVTGLRNLGNTCYMNSILQVLSHLQKFRECFLNLDPSKTEHLFPKATNGKTQLSGKPTNSSATELSLRNDRAEACEREGFCWNGRASISRSLELIQNKEPSSKHISLCRELHTLFRVMWSGKWALVSPFAMLHSVWSLIPAFRGYDQQDAQEFLCELLHKVQQELESEGTTRRILIPFSQRKLTKQVLKVVNTIFHGQLLSQVTCISCNYKSNTIEPFWDLSLEFPERYHCIEKGFVPLNQTECLLTEMLAKFTETEALEGRIYACDQCNSKRRKSNPKPLVLSEARKQLMIYRLPQVLRLHLKRFRWSGRNHREKIGVHVVFDQVLTMEPYCCRDMLSSLDKETFAYDLSAVVMHHGKGFGSGHYTAYCYNTEGGFWVHCNDSKLNVCSVEEVCKTQAYILFYTQRTVQGNARISETHLQAQVQSSNNDEGRPQTFS	-0.174
YAF2 (protein, UniProt Q8IY57 1-180, looked up) YY1-associated factor 2: MGDKKSPTRPKRQPKPSSDEGYWDCSVCTFRNSAEAFKCMMCDVRKGTSTRKPRPVSQLVAQQVTQQFVPPTQSKKEKKDKVEKEKSEKETTSKKNSHKKTRPRLKNVDRSSAQHLEVTVGDLTVIITDFKEKTKSPPASSAASADQHSQSGSSSDNTERGMSRSSSPRGEASSLNGESH	1.84
VAX2 (protein, UniProt Q9UIW0 1-290, looked up) Ventral anterior homeobox 2: MGDGGAERDRGPARRAESGGGGGRCGDRSGAGDLRADGGGHSPTEVAGTSASSPAGSRESGADSDGQPGPGEADHCRRILVRDAKGTIREIVLPKGLDLDRPKRTRTSFTAEQLYRLEMEFQRCQYVVGRERTELARQLNLSETQVKVWFQNRRTKQKKDQSRDLEKRASSSASEAFATSNILRLLEQGRLLSVPRAPSLLALTPSLPGLPASHRGTSLGDPRNSSPRLNPLSSASASPPLPPPLPAVCFSSAPLLDLPAGYELGSSAFEPYSWLERKVGSASSCKKANT	-0.9394
ZBTB17 (protein, UniProt Q13105 1-803, looked up) Zinc finger and BTB …: MDFPQHSQHVLEQLNQQRQLGLLCDCTFVVDGVHFKAHKAVLAACSEYFKMLFVDQKDVVHLDISNAAGLGQVLEFMYTAKLSLSPENVDDVLAVATFLQMQDIITACHALKSLAEPATSPGGNAEALATEGGDKRAKEEKVATSTLSRLEQAGRSTPIGPSRDLKEERGGQAQSAASGAEQTEKADAPREPPPVELKPDPTSGMAAAEAEAALSESSEQEMEVEPARKGEEEQKEQEEQEEEGAGPAEVKEEGSQLENGEAPEENENEESAGTDSGQELGSEARGLRSGTYGDRTESKAYGSVIHKCEDCGKEFTHTGNFKRHIRIHTGEKPFSCRECSKAFSDPAACKAHEKTHSPLKPYGCEECGKSYRLISLLNLHKKRHSGEARYRCEDCGKLFTTSGNLKRHQLVHSGEKPYQCDYCGRSFSDPTSKMRHLETHDTDKEHKCPHCDKKFNQVGNLKAHLKIHIADGPLKCRECGKQFTTSGNLKRHLRIHSGEKPYVCIHCQRQFADPGALQRHVRIHTGEKPCQCVMCGKAFTQASSLIAHVRQHTGEKPYVCERCGKRFVQSSQLANHIRHHDNIRPHKCSVCSKAFVNVGDLSKHIIIHTGEKPYLCDKCGRGFNRVDNLRSHVKTVHQGKAGIKILEPEEGSEVSVVTVDDMVTLATEALAATAVTQLTVVPVGAAVTADETEVLKAEISKAVKQVQEEDPNTHILYACDSCGDKFLDANSLAQHVRIHTAQALVMFQTDADFYQQYGPGGTWPAGQVLQAGELVFRPRDGAEGQPALAETSPTAPECPPPAE	-0.2141
USP22 (protein, UniProt Q9UPT9 1-525, looked up) Ubiquitin carboxyl-terminal …: MVSRPEPEGEAMDAELAVAPPGCSHLGSFKVDNWKQNLRAIYQCFVWSGTAEARKRKAKSCICHVCGVHLNRLHSCLYCVFFGCFTKKHIHEHAKAKRHNLAIDLMYGGIYCFLCQDYIYDKDMEIIAKEEQRKAWKMQGVGEKFSTWEPTKRELELLKHNPKRRKITSNCTIGLRGLINLGNTCFMNCIVQALTHTPLLRDFFLSDRHRCEMQSPSSCLVCEMSSLFQEFYSGHRSPHIPYKLLHLVWTHARHLAGYEQQDAHEFLIAALDVLHRHCKGDDNGKKANNPNHCNCIIDQIFTGGLQSDVTCQVCHGVSTTIDPFWDISLDLPGSSTPFWPLSPGSEGNVVNGESHVSGTTTLTDCLRRFTRPEHLGSSAKIKCSGCHSYQESTKQLTMKKLPIVACFHLKRFEHSAKLRRKITTYVSFPLELDMTPFMASSKESRMNGQYQQPTDSLNNDNKYSLFAVVNHQGTLESGHYTSFIRQHKDQWFKCDDAIITKASIKDVLDSEGYLLFYHKQFLEYE	0.5078
TWIST1 (protein, UniProt Q15672 1-202, looked up) Twist-related protein 1: MMQDVSSSPVSPADDSLSNSEEEPDRQQPPSGKRGGRKRRSSRRSAGGGAGPGGAAGGGVGGGDEPGSPAQGKRGKKSAGCGGGGGAGGGGGSSSGGGSPQSYEELQTQRVMANVRERQRTQSLNEAFAALRKIIPTLPSDKLSKIQTLKLAARYIDFLYQVLQSDELDSKMASCSYVAHERLSYAFSVWRMEGAWSMSASH	-0.8032
TWIST2 (protein, UniProt Q8WVJ9 1-160, looked up) Twist-related protein 2: MEEGSSSPVSPVDSLGTSEEELERQPKRFGRKRRYSKKSSEDGSPTPGKRGKKGSPSAQSFEELQSQRILANVRERQRTQSLNEAFAALRKIIPTLPSDKLSKIQTLKLAARYIDFLYQVLQSDEMDNKMTSCSYVAHERLSYAFSVWRMEGAWSMSASH	-0.4698
ZBED2 (protein, UniProt Q9BTP6 1-218, looked up) Zinc finger BED …: MMRREDEEEEGTMMKAKGDLEMKEEEEISETGELVGPFVSAMPTPMPHNKGTRFSEAWEYFHLAPARAGHHPNQYATCRLCGRQVSRGPGVNVGTTALWKHLKSMHREELEKSGHGQAGQRQDPRPHGPQLPTGIEGNWGRLLEQVGTMALWASQREKEVLRRERAVEWRERAVEKRERALEEVERAILEMKWKVRAEKEACQREKELPAAVHPFHFV	0.7838
C16orf5 (protein, UniProt Q9H305 1-208, looked up) Cell death-inducing …: MSSEPPPPYPGGPTAPLLEEKSGAPPTPGRSSPAVMQPPPGMPLPPADIGPPPYEPPGHPMPQPGFIPPHMSADGTYMPPGFYPPPGPHPPMGYYPPGPYTPGPYPGPGGHTATVLVPSGAATTVTVLQGEIFEGAPVQTVCPHCQQAITTKISYEIGLMNFVLGFFCCFMGCDLGCCLIPCLINDFKDVTHTCPSCKAYIYTYKRLC	3.145
WNT3A (protein, UniProt P56704 19-352, looked up) Protein Wnt-3a: SYPIWWSLAVGPQYSSLGSQPILCASIPGLVPKQLRFCRNYVEIMPSVAEGIKIGIQECQHQFRGRRWNCTTVHDSLAIFGPVLDKATRESAFVHAIASAGVAFAVTRSCAEGTAAICGCSSRHQGSPGKGWKWGGCSEDIEFGGMVSREFADARENRPDARSAMNRHNNEAGRQAIASHMHLKCKCHGLSGSCEVKTCWWSQPDFRAIGDFLKDKYDSASEMVVEKHRESRGWVETLRPRYTYFKVPTERDLVYYEASPNFCEPNPETGSFGTRDRTCNVSSHGIDGCDLLCCGRGHNARAERRREKCRCVFHWCCYVSCQECTRVYDVHTCK	-0.5314
UBTF (protein, UniProt P17480 1-764, looked up) Nucleolar transcription …: MNGEADCPTDLEMAAPKGQDRWSQEDMLTLLECMKNNLPSNDSSKFKTTESHMDWEKVAFKDFSGDMCKLKWVEISNEVRKFRTLTELILDAQEHVKNPYKGKKLKKHPDFPKKPLTPYFRFFMEKRAKYAKLHPEMSNLDLTKILSKKYKELPEKKKMKYIQDFQREKQEFERNLARFREDHPDLIQNAKKSDIPEKPKTPQQLWYTHEKKVYLKVRPDATTKEVKDSLGKQWSQLSDKKRLKWIHKALEQRKEYEEIMRDYIQKHPELNISEEGITKSTLTKAERQLKDKFDGRPTKPPPNSYSLYCAELMANMKDVPSTERMVLCSQQWKLLSQKEKDAYHKKCDQKKKDYEVELLRFLESLPEEEQQRVLGEEKMLNINKKQATSPASKKPAQEGGKGGSEKPKRPVSAMFIFSEEKRRQLQEERPELSESELTRLLARMWNDLSEKKKAKYKAREAALKAQSERKPGGEREERGKLPESPKRAEEIWQQSVIGDYLARFKNDRVKALKAMEMTWNNMEKKEKLMWIKKAAEDQKRYERELSEMRAPPAATNSSKKMKFQGEPKKPPMNGYQKFSQELLSNGELNHLPLKERMVEIGSRWQRISQSQKEHYKKLAEEQQKQYKVHLDLWVKSLSPQDRAAYKEYISNKRKSMTKLRGPNPKSSRTTLQSKSESEEDDEEDEDDEDEDEEEEDDENGDSSEDGGDSSESSSEDESEDGDENEEDDEDEDDDEDDDEDEDNESEGSSSSSSSSGDSSDSDSN	-0.959
